From the supplement of paper PMC10567573

B1: TSN (parent)
chain: FVELQGFLAAEQDIREEIRKVVQS
B2: CCND1 (parent)
chain: IRRAYPDANLLNDRVLRAMLKAEE
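Further: lentivirally expressed fusions sorted by FACS into six bins by GFP to DsRed ratio, PSI derived from sequencing read proportions per bin multiplied by bin number.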

Variants of: B1
Assay: protein stability index of a GFP-peptide fusion (GPS, HEK-293T) (PSI 1-6); higher = more stable
Settings: c terminus: a fixed tail appended
For V21D, the protein stability index was 2.52.
With V21A the protein stability index was 1.29.
V21S showed a protein stability index of 1.45.
In the case of V21Q, the protein stability index is reported as 2.13.
Work on V21T yielded a protein stability index of 3.32.
With V21G the protein stability index was 1.69.
In the case of V21I, the protein stability index is reported as 3.69.
Work on V21K yielded a protein stability index of 1.79.
V21W gave a protein stability index of 2.27.
Variant V21P has a protein stability index of 2.51.
For V21N, the protein stability index was 2.47.
Variant V21Y has a protein stability index of 1.68.
For V21E, the protein stability index was 1.55.
V21M showed a protein stability index of 1.21.
With V22I the protein stability index was 3.83.
V22M gave a protein stability index of 1.42.
Variant V22G has a protein stability index of 1.55.
In the case of V22K, the protein stability index is reported as 1.62.
V22L gave a protein stability index of 1.97.
In the case of V22R, the protein stability index is reported as 1.7.
Work on V22Q yielded a protein stability index of 4.66.
With V22P the protein stability index was 3.2.
In the case of V22F, the protein stability index is reported as 2.67.
With V22H the protein stability index was 2.65.
V22W showed a protein stability index of 2.27.
In the case of V22C, the protein stability index is reported as 3.
Variant V22E has a protein stability index of 2.23.
With Q23F the protein stability index was 2.61.
Work on Q23W yielded a protein stability index of 1.65.
Work on Q23L yielded a protein stability index of 1.92.
For Q23T, the protein stability index was 2.38.
In the case of Q23M, the protein stability index is reported as 1.98.
In the case of Q23D, the protein stability index is reported as 3.47.
Q23I showed a protein stability index of 1.25.
For Q23C, the protein stability index was 3.33.
For S24G, the protein stability index was 2.37.
With S24K the protein stability index was 1.42.
Work on S24E yielded a protein stability index of 1.72.
Work on S24Q yielded a protein stability index of 1.97.
S24L showed a protein stability index of 3.92.
K20Y showed a protein stability index of 2.21.
In the case of K20R, the protein stability index is reported as 1.99.
Variant K20S has a protein stability index of 1.96.
Work on K20T yielded a protein stability index of 1.89.

Variants of: B2
Assay: as above
Settings: c terminus: a fixed tail appended
For A4N, the protein stability index was 2.59.
A4L gave a protein stability index of 1.84.
A4Y gave a protein stability index of 2.68.
In the case of A4R, the protein stability index is reported as 2.37.
A4M showed a protein stability index of 2.58.
Work on A4P yielded a protein stability index of 3.12.
A4K gave a protein stability index of 2.3.
With A4C the protein stability index was 2.17.
Variant A4I has a protein stability index of 2.4.
A4E showed a protein stability index of 2.04.
Variant A4Q has a protein stability index of 2.37.
A4F gave a protein stability index of 1.4.
In the case of A4V, the protein stability index is reported as 1.79.
In the case of A4W, the protein stability index is reported as 3.03.
Variant A4T has a protein stability index of 2.12.
A4H showed a protein stability index of 2.4.
In the case of A8K, the protein stability index is reported as 2.53.
For A8Y, the protein stability index was 2.4.
For A8M, the protein stability index was 2.85.
A8T gave a protein stability index of 2.61.
In the case of A8P, the protein stability index is reported as 3.03.
A8H showed a protein stability index of 2.28.
With A8V the protein stability index was 3.02.
A8I gave a protein stability index of 2.02.
For A8F, the protein stability index was 2.54.
With A8L the protein stability index was 2.04.
With A8N the protein stability index was 3.46.
A8R showed a protein stability index of 3.16.
For A8S, the protein stability index was 2.81.
For A8C, the protein stability index was 2.78.
In the case of Y5N, the protein stability index is reported as 2.43.
In the case of Y5C, the protein stability index is reported as 2.9.
Y5A showed a protein stability index of 3.33.
Variant Y5H has a protein stability index of 2.02.
In the case of Y5P, the protein stability index is reported as 3.69.
Y5K showed a protein stability index of 3.3.
Variant Y5G has a protein stability index of 2.14.
Y5W gave a protein stability index of 2.13.
Work on Y5L yielded a protein stability index of 3.07.
Y5D gave a protein stability index of 1.54.
For Y5T, the protein stability index was 3.49.
Y5E gave a protein stability index of 2.51.
Work on Y5R yielded a protein stability index of 2.53.
Work on D7S yielded a protein stability index of 2.43.
Variant D7H has a protein stability index of 2.14.
Variant D7W has a protein stability index of 2.36.
In the case of D7E, the protein stability index is reported as 2.06.
D7T gave a protein stability index of 2.23.
With D7K the protein stability index was 2.1.
In the case of D7N, the protein stability index is reported as 3.11.
Variant D7Y has a protein stability index of 2.13.
In the case of D7F, the protein stability index is reported as 1.65.
D7A showed a protein stability index of 1.83.
In the case of D7L, the protein stability index is reported as 1.84.
D7P gave a protein stability index of 2.09.
Work on P6G yielded a protein stability index of 2.13.
For P6I, the protein stability index was 2.21.
With P6R the protein stability index was 2.35.
With P6V the protein stability index was 3.38.
In the case of P6D, the protein stability index is reported as 1.43.
P6S showed a protein stability index of 3.19.
In the case of P6F, the protein stability index is reported as 2.4.
Work on P6M yielded a protein stability index of 2.99.
P6L showed a protein stability index of 2.42.
P6Y gave a protein stability index of 1.63.
In the case of P6T, the protein stability index is reported as 1.88.
P6A showed a protein stability index of 1.75.
P6E gave a protein stability index of 2.14.
Variant R2W has a protein stability index of 3.61.
In the case of R2T, the protein stability index is reported as 2.92.
Variant R2H has a protein stability index of 2.08.
For R2Y, the protein stability index was 1.6.
In the case of R2Q, the protein stability index is reported as 3.03.
Work on R2L yielded a protein stability index of 2.39.
With R2C the protein stability index was 2.25.
In the case of R2M, the protein stability index is reported as 3.37.
In the case of R2D, the protein stability index is reported as 4.09.
R2K gave a protein stability index of 2.87.
R2P showed a protein stability index of 3.68.
In the case of R2F, the protein stability index is reported as 1.94.
For R2E, the protein stability index was 3.49.
In the case of R2N, the protein stability index is reported as 2.84.
R2I showed a protein stability index of 2.4.
Variant R2A has a protein stability index of 3.82.
With N9S the protein stability index was 2.44.
N9T gave a protein stability index of 2.63.
Work on N9G yielded a protein stability index of 2.34.
For N9D, the protein stability index was 2.3.
Work on N9R yielded a protein stability index of 2.06.
N9F gave a protein stability index of 1.71.
N9A gave a protein stability index of 2.34.
Work on N9V yielded a protein stability index of 2.26.
In the case of N9I, the protein stability index is reported as 2.36.
Variant N9E has a protein stability index of 3.04.
With I1W the protein stability index was 2.32.
With I1R the protein stability index was 2.21.
Work on I1K yielded a protein stability index of 2.99.
In the case of I1V, the protein stability index is reported as 2.69.
I1T gave a protein stability index of 2.27.
Variant I1P has a protein stability index of 3.34.
I1H showed a protein stability index of 3.25.
I1Q showed a protein stability index of 3.45.
Work on I1C yielded a protein stability index of 2.41.
For I1S, the protein stability index was 3.94.
Variant I1A has a protein stability index of 2.77.
With I1N the protein stability index was 3.69.
In the case of I1L, the protein stability index is reported as 2.5.
For R3F, the protein stability index was 1.87.
For R3E, the protein stability index was 3.72.
With R3Y the protein stability index was 2.05.
With R3H the protein stability index was 2.92.
With R3W the protein stability index was 1.99.
R3K gave a protein stability index of 2.84.
In the case of R3M, the protein stability index is reported as 2.35.
Variant R3P has a protein stability index of 2.71.
Variant R3N has a protein stability index of 2.66.
With R3T the protein stability index was 3.17.
For R3I, the protein stability index was 1.13.
In the case of R3G, the protein stability index is reported as 3.44.
R3D showed a protein stability index of 4.23.
In the case of R3Q, the protein stability index is reported as 3.62.
For R3V, the protein stability index was 1.54.
R3A showed a protein stability index of 2.86.
